Test results: patent US8143216B2, “Modified human growth hormone” (Ambrx, Inc., priority 2004, dated 2012)

T1: rat GHR ECD (L43R) (Rattus norvegicus, UniProt P16310, L61R)
T1 construct: (GHR ECD, amino acids S29-T238) was cloned into pET20b vector; made in house
T1 sequence (P16310 47-256 L61R): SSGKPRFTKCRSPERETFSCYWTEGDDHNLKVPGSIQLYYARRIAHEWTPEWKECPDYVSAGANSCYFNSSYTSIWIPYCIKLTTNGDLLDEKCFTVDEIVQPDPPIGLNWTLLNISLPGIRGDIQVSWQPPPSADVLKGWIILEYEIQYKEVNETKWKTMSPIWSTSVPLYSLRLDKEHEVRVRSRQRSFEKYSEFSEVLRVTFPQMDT

T2: human growth hormone receptor on IM-9 cells (Homo sapiens, UniProt P10912)
T2 construct: host or cells: human IM-9 lymphocyte cell line
T2 sequence (P10912 19-638): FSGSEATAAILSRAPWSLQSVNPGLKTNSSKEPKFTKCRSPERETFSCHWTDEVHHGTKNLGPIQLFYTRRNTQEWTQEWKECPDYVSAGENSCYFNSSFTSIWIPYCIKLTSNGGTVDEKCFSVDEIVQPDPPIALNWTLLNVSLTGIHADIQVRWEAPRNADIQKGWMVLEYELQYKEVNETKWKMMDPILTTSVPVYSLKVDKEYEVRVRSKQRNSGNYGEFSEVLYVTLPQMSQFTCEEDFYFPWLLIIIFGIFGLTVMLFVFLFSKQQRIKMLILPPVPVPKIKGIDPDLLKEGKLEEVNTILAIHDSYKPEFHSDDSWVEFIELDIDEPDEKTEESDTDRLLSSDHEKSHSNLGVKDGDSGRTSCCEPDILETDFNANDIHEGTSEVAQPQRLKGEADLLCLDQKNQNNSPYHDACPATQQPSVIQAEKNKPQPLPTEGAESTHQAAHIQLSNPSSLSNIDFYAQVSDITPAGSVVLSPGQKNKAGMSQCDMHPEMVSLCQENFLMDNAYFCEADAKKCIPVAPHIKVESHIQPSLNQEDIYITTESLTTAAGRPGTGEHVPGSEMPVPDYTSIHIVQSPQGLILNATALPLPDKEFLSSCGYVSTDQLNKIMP

B1: human prolactin: human prolactin (protein)
chain: LPICPGGAARCQVTLRDLFDRAVVLSHYIHNLSSEMFSEFDKRYTHGRGFITKAINSCHTSSLATPEDKEQAQQMNQKDFLSLIVSILRSWNEPLYHLVTEVRGMQEAPEAILSKAVEIEEQTKRLLEGMELIVSQVHPETKENEIYPVWSGLPSLQMADEESRLSAYYNLLHCLRRDSHKIDNYLKLLKCRIIHNNNC

Key:
rat GHR ECD (L43R) = biological target: T1, rat GHR ECD (L43R); experiment: Biacore analysis of binding of GH to GHR; conditions: rat GHR ECD (L43R) immobilized on a CM5 chip, bivalent analyte model
Method: Cloning and purification of rat GH receptor The extracellular domain of rat GH receptor (GHR ECD, amino acids S29-T238) was cloned into pET20b vector (Novagen) between Nde I and Hind III sites in frame with C-terminal 6H is tag. A mutation of L43 to R was introduced to further approximate the human GH receptor binding site (Souza et al., Proc Natl Acad Sci USA. (1995) 92(4): 959-63). Recombinant protein was produced in BL21 (DE3) E. coli cells (Novagen) by induction with 0.4 mM IPTG at 30° C. for 4-5 hours. After lysing the cells, the pellet was washed four times by resuspending in a dounce with 30 mL of 50 mM Tris, pH 7.6, 100 mM NaCl, 1 mM EDTA, 1% Triton X-100, and twice with the same buffer without Triton X-100. […] Refolding was accomplished by means of passing an aliquot of the inclusion body solution through a S100 (Sigma) gel filtration column, equilibrated with 50 mM Tris, pH 7.8, 1 M L-arginine, 3.7 mM cystamine, 6.5 mM cysteamine. Fractions containing soluble protein were combined and dialyzed against 50 mM Tris, pH 7.6, 200 mM NaCl, 10% glycerol. The sample was briefly centrifuged to remove any precipitate and incubated with an aliquot of Talon resin (Clontech), according to manufacturer's instructions. After washing the resin with 20 volumes of dialysis buffer supplemented with 5 mM imidazole, protein was eluted with 120 mM imidazole in dialysis buffer. Finally, the sample was dialyzed overnight against 50 mM Tris, pH 7.6, 30 mM NaCl, 1 mM EDTA, 10% glycerol, centrifuged briefly to remove any precipitate, adjusted to 20% glycerol final concentration, aliquoted and stored at −80 C. Concentration of the protein was measured by OD(280) using calculated extinction coefficient of ε=65,700 M^−1*cm^−1.
Approximately 600-800 RUs of soluble GHR ECD was immobilized on a Biacore™ CM5 chip, using a standard amine-coupling procedure, as recommended by the manufacturer. […] See, e.g., Cunningham et al. J Mol. Biol. (1993) 234(3): 554-63 and Wells J A. Proc Natl Acad Sci USA (1996) 93(1): 1-6).
Various concentrations of wild type or mutant GH (0.1-300 nM) in HBS-EP buffer (Biacore™, Pharmacia) were injected over the GHR surface at a flow rate of 40 μl/min for 4-5 minutes, and dissociation was monitored for 15 minutes post-injection. The surface was regenerated by a 15 second pulse of 4.5M MgCl2. […] Reference cell with no receptor immobilized was used to subtract any buffer bulk effects and non-specific binding.
Kinetic binding data obtained from GH titration experiments was processed with BiaEvaluation 4.1 software (BIACORE™). […] Equilibrium dissociation constants (Kd) were calculated as ratios of individual rate constants (koff/kon).

[1] = Pharmacokinetic studies, single s.c. dose in normal male Sprague-Dawley rats; assay type: in vivo, rat; conditions: for AUC0−>inf / Cl/f / Cmax / MRT / Terminal t1/2: single-dose 1 mg/kg bolus s.c., normal male Sprague-Dawley rats
Method: Pharmacokinetic properties of PEG-modified growth hormone compounds were compared to each other and to nonPEGylated growth hormone in male Sprague-Dawley rats (261-425 g) obtained from Charles River Laboratories. Catheters were surgically installed into the carotid artery for blood collection. Following successful catheter installation, animals were assigned to treatment groups (three to six per group) prior to dosing. Animals were dosed subcutaneously with 1 mg/kg of compound in a dose volume of 0.41-0.55 ml/kg. Blood samples were collected at various time points via the indwelling catheter and into EDTA-coated microfuge tubes. Plasma was collected after centrifugation, and stored at −80° C. until analysis. Compound concentrations were measured using antibody sandwich growth hormone ELISA kits from either BioSource International (Camarillo, Calif.) or Diagnostic Systems Laboratories (Webster, Tex.). Concentrations were calculated using standards corresponding to the analog that was dosed. Pharmacokinetic parameters were estimated using the modeling program WinNonlin (Pharsight, version 4.1). Noncompartmental analysis with linear-up/log-down trapezoidal integration was used, and concentration data was uniformly weighted.
Rats (n=3-4 per group) were given a single bolus dose of 1 mg/kg hGH wild-type protein (WHO hGH), His-tagged hGH polypeptide (his-hGH), or His-tagged hGH polypeptide comprising non-natural amino acid p-acetyl-phenylalanine at position 92 covalently linked to 30 kDa PEG (30 KPEG-pAF92(his)hGH). Plasma samples were taken over the indicated time intervals and assayed for injected compound as described.
Rats (n=3-6 per group) were given a single bolus dose of 1 mg/kg protein. hGH polypeptides comprising non-natural amino acid p-acetyl-phenylalanine covalently linked to 30 kDa PEG at each of six different positions were compared to WHO hGH and (his)-hGH. Plasma samples were taken over the indicated time intervals and assayed for injected compound as described. Concentration vs time curves were evaluated by noncompartmental analysis (Pharsight, version 4.1). Values shown are averages (+/− standard deviation). Cmax: maximum concentration; terminal t1/2: terminal half-life; AUC0->inf: area under the concentration-time curve extrapolated to infinity; MRT: mean residence time; Cl/f: apparent total, plasma clearance; Vz/f: apparent volume of distribution during terminal phase.

[2] = tested on: rat model of growth hormone deficiency (hypophysectomized rats); experiment: Efficacy studies of PEGylated hGH in a rat model of growth hormone deficiency (Example 34); assay type: in vivo
Method: Preclinical efficacy studies were conducted in a rat model of growth hormone deficiency. In this model, the pituitary gland was surgically removed at approximately 4 weeks of age. The body weights of these hypophysectomized rats were monitored after surgery and animals showing less than 7.5 grams of bodyweight gain over a period of 7 days before the study were deemed successfully hypophysectomized and were randomized amongst the treatment groups. Animals showing more than 2.5 g of weight-loss were deemed not healthy and were excluded from the study. The study was initiated approximately 3 weeks after the surgery.
Animals were dosed weekly (i.e. dosed on days 0 and 7) with either placebo or increasing PEG-^ahGH dose. An additional treatment group received Genotropin or placebo daily. Bodyweights and blood were collected predose and daily. All animals were sacrificed on day 14.
For this parameter, the AUC is expressed as AUC above the efficacious IGF-1 plasma level. […] In the current study, the baseline IGF-1 level determined from the placebo group throughout the study was 128 ng/mL. An increase of 34 ng/mL over 128 ng/mL estimates an efficacious IGF-1 level of 162 ng/mL. Thus the AUC above 162 ng/mL was integrated. From this analysis, a dose-dependent increase in AUC above efficacious level was observed after each dose interval.
The duration of IGF-1 levels induced above the estimated efficacious level after the first dose was determined. At the higher doses, the IGF-1 levels had not returned to baseline before the second dose. In these instances, the IGF-1 concentration was extrapolated to the efficacious level using the calculated terminal slopes. From this evaluation, a dose-dependent increase in duration of IGF-1 concentration above the efficacious level was evident.
Bone growth was used as an additional pharmacodynamic measure to calculate the PEG-^ahGH ED50. Tibias were collected from each animal at the end of the study and immersion fixed in 10% neutral-buffered formalin followed by radiography. There was a clear dose-dependent increase in tibial bone length for the PEG-^ahGH treated animals. Moreover, there was a dose sparing effect compared to the daily Genotropin treated animals. The amount of Genotropin administered over a 7-day interval is equivalent to 2.1 mg/kg of PEG-^ahGH given weekly (i.e., days 0 and 7). An induction of tibial bone length increase similar to Genotropin is shown for PEG-^ahGH at 0.42 to 1.0 mg/kg. This represents a ≧50% dose-sparing effect for PEG-^ahGH when compared to Genotropin.

[3] = biological target: T2, human growth hormone receptor on IM-9 cells; experiment: IM-9 pSTAT5 bioassay (STAT5 phosphorylation in IM-9 cells); assay type: cell-based; conditions: IM-9 cells
From the text: To further assess the biological activity of modified hGH polypeptides, an assay measuring a downstream marker of hGH's interaction with its receptor was used. The interaction of hGH with its endogenously produced receptor leads to the tyrosine phosphorylation of a signal transducer and activator of transcription family member, STAT5, in the human IM-9 lymphocyte cell line. Two forms of STAT5, STAT5A and STAT5B were identified from an IM-9 cDNA library. See, e.g., Silva et al., Mol. Endocrinol. (1996) 10(5):508-518.
IM-9 cells were stimulated with hGH polypeptides of the present invention. The human IM-9 lymphocytes were purchased from ATCC (Manassas, Va.) and grown in RPMI 1640 supplemented with sodium pyruvate, penicillin, streptomycin (Invitrogen, Carlsbad, San Diego) and 10% heat inactivated fetal calf serum (Hyclone, Logan, Utah). The IM-9 cells were starved overnight in assay media (phenol-red free RPMI, 10 mM Hepes, 1% heat inactivated charcoal/dextran treated FBS, sodium pyruvate, penicillin and streptomycin) before stimulation with a 12-point dose range of hGH polypeptides for 10 min at 37° C. Stimulated cells were fixed with 1% formaldehyde before permeabilization with 90% ice-cold methanol for 1 hour on ice. The level of STAT5 phosphorylation was detected by intra-cellular staining with a primary phospho-STAT5 antibody (Cell Signaling Technology, Beverly, Mass.) at room temperature for 30 min followed by a PE-conjugated secondary antibody. Sample acquisition was performed on the FACS Array with acquired data analyzed on the Flowjo software (Tree Star Inc., Ashland, Oreg.). EC50 values were derived from dose response curves plotted with mean fluorescent intensity (MFI) against protein concentration utilizing SigmaPlot.
The interaction of hGH with its receptor leads to the tyrosine phosphorylation of a signal transducer and activator of transcription family member, STAT5, in the human IM-9 lymphocyte cell line.

Row | Molecule | kon (rat GHR ECD (L43R)) [M⁻¹ s⁻¹] | AUC0−>inf [1] | Cl/f [1] [mL/min/kg] | Cmax [1] [ng/mL] | MRT [1] [h] | Terminal t1/2 [1] [h] | other results
1 | R134pAF-30KD PEG: hGH polypeptide comprising p-acetyl-phenylalanine at position 134 covalently linked to 30 kDa PEG | 70000 | 7,304 ng × hr/ml | 2.52 | 566 | 12.15 | 4.36 | 
2 | Genotropin: commercial preparation of hGH, Genotropin™ (Pfizer) [reference compound] |  |  |  |  |  |  | bodyweight change on day 14 from day 0 ([2]; daily treatment at 0.3 mg/kg/day): 27.74 (+/−7.92) %
3 | unPEGylated GH: unPEGylated GH administered weekly at 2.1 mg/kg in hypophysectomized rats [reference compound] |  |  |  |  |  |  | body weight gain ([2]; weekly at 2.1 mg/kg dose): failed to induce body weight gain
4 | F92pAF-30KD PEG: His-tagged hGH polypeptide comprising p-acetyl-phenylalanine at position 92 covalently linked to 30 kDa PEG | 130000 | 10,539 ng × hr/ml | 2.25 | 663 | 15.05 | 4.51 | circulation (plasma concentrations) compared to control hGH ([1]; single bolus s.c. dose of 1 mg/kg in rats, FIG. 15): dramatically extended circulation compared to control hGH
5 | E88pAF: hGH with p-acetyl-phenylalanine (pAF) substituted for E88 | 680000 |  |  |  |  |  | 
6 | B1 |  |  |  |  |  |  | STAT5 phosphorylation [3]: neither rat growth hormone nor human prolactin resulted in detectable STAT5 phosphorylation
